This note sets out measurements from paper PMC8776337, “Peptides Derived from Vascular Endothelial Growth Factor B Show Potent Binding to Neuropilin‐1” (Chembiochem, 2021).

The labels stand for the following.
B3: b1 domain of neuropilin‐1 (NRP1‐b1) (domain or fragment, human)
chain: FKCMEALGMESGEIHSDQITASSQYSTNWSAERSRLNYPENGWTPGEDSYREWIQVDLGLLRFVTAVGTQGAISKETKKKYYVKTYKIDVSSNGEDWITIKEGNKPVLFQGNTNPTDVVVAVFPKPLITRFVRIKPATWETGISMRFEVYGCKIT
notes: neuropilin-1, human, b1 domain; also called NRP1‐b1 domain; NRP1 b1 domain; source: E. coli Rosetta (DE3), purified (HisTrap, TEV cleavage, Superdex 75, SP FF ion exchange)

The target in experiment [1] is T1, NRP1‐b1 binding to VEGF‐B167 (Homo sapiens, UniProt O14786).
T1 construct: poly-histidine (TEV-cleavable) (cleaved yes); made in house; host or cells: E. coli Rosetta (DE3) (NRP1-b1 only)
T1 sequence (O14786 275-424 limits assumed): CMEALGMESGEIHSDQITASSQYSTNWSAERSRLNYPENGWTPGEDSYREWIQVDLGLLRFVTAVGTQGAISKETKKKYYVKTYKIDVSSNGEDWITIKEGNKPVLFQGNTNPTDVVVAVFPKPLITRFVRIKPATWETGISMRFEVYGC
The experiment can be described thus: SPR EG01377 competition assay, NRP1-b1 binding to immobilised VEGF-B167. To be noted: NRP1-b1 5 μM, EG01377 6.25 to 50 μM, 60 s. The text has this:
(§1) We have previously reported the use of SPR to characterise the interaction between the immobilized b1 domain of NRP1 (NRP1‐b1) and VEGF‐A‐derived peptides,[23] arginine analogues,[26] and small molecules.[27, 28] When we attempted to measure the binding affinity of VEGF‐B isoforms to immobilized NRP1‐b1 we observed non‐saturable binding responses. Increasing concentrations of VEGF‐B over immobilised NRP1 led to response units (RU) higher than the theoretical maximum for a 1 : 1 interaction. The shape of the curves remained consistent at low and high concentration and was not typical of sample precipitation (fuzzy heterogeneous curves, commonly observed only at higher concentrations). […] We consider that the observations are consistent with oligomerization as a form of non‐specific binding. […] To circumvent this, we immobilized VEGF‐B167 and VEGF‐A165 (Figure 2) onto a sensor chip and measured the binding of NRP1‐b1 domain in solution. Using this method, the binding affinity of NRP1‐b1 to immobilized VEGF‐A165 was 100‐fold lower than previously observed when the interaction was measured in reverse experimental configuration.[23] […] We then sought to investigate if binding could be blocked by a known inhibitor of the VEGF‐A interaction with NRP1‐b1. […]

Experiment [2] addresses T2, NRP1‐b1 binding to VEGF‐A165 (Homo sapiens, UniProt O14786).
T2 construct: poly-histidine (TEV-cleavable) (cleaved yes); made in house; host or cells: E. coli Rosetta (DE3) (NRP1-b1 only)
T2 sequence (O14786 275-424 limits assumed): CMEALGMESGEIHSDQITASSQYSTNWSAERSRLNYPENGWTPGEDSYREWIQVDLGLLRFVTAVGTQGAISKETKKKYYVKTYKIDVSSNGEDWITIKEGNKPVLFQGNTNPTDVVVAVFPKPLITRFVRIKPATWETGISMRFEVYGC
The experiment in a line: SPR EG01377 competition assay, NRP1-b1 binding to immobilised VEGF-A165. The settings on record: NRP1-b1 5 μM, EG01377 1.25 to 10 μM, 60 s.
Text: as §1

Experiment [3] concerns VEGFs. The experiment in a line: SPR direct binding of EG01377 to immobilised VEGFs. To be noted: immobilised VEGF-A165 and VEGF-B167. Further details: species or system human.
Text: as §1

In experiment [4] the target is T3, NRP1‐b1 (Homo sapiens, UniProt O14786).
T3 construct: the immobilized b1 domain of NRP1 (NRP1‐b1); poly-histidine (TEV-cleavable) (cleaved yes); made in house; host or cells: E. coli Rosetta (DE3)
T3 sequence (O14786 275-424 limits assumed): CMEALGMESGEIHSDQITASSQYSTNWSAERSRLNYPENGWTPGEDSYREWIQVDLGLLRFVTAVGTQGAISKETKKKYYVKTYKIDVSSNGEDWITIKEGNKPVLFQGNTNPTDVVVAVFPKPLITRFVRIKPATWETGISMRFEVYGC
The experiment in a line: SPR binding of NRP1-b1 in solution to immobilised VEGFs. The settings on record: VEGF immobilised on CM5 chip, NRP1-b1 0.25 to 64 μM in PBS, 60 s, steady-state, 1:1 interaction, 25 °C, read-out: KD of NRP1‐b1 for immobilized VEGF. The source says:
We have previously reported the use of SPR to characterise the interaction between the immobilized b1 domain of NRP1 (NRP1‐b1) and VEGF‐A‐derived peptides,[23] arginine analogues,[26] and small molecules.[27, 28] When we attempted to measure the binding affinity of VEGF‐B isoforms to immobilized NRP1‐b1 we observed non‐saturable binding responses. Increasing concentrations of VEGF‐B over immobilised NRP1 led to response units (RU) higher than the theoretical maximum for a 1 : 1 interaction. The shape of the curves remained consistent at low and high concentration and was not typical of sample precipitation (fuzzy heterogeneous curves, commonly observed only at higher concentrations). […] We consider that the observations are consistent with oligomerization as a form of non‐specific binding. […] To circumvent this, we immobilized VEGF‐B167 and VEGF‐A165 (Figure 2) onto a sensor chip and measured the binding of NRP1‐b1 domain in solution. Using this method, the binding affinity of NRP1‐b1 to immobilized VEGF‐A165 was 100‐fold lower than previously observed when the interaction was measured in reverse experimental configuration.[23] […]
Binding of NRP1‐b1 to VEGFs: Dose responses were obtained by injecting NRP1‐b1 in PBS over the immobilized VEGFs for 60 s, using two‐fold dilutions from 64 to 0.25 μM. Steady‐state binding affinities were calculated assuming a 1 : 1 interaction.

Experiment [5] addresses B3. The experiment in a line: SPR; NRP1-b1 immobilised on a CM5 chip by random amine coupling; peptides injected for 60 s, 120 or 180 s dissociation; 25 °C; regeneration with 1 M NaCl; kinetic fit, 1:1 model (MGC0122, MGC0123, MGC0124) or two-state model (MGC0171, MGC0172, MGC0173, MGC0174). To be noted: both partners purified.
Experiment [6] deals with T4, VEGF‐A165 (human, UniProt P15692-4 1-191).
T4 construct: vascular endothelial growth factor A, isoform VEGF-A165, human
The experiment can be described thus: SPR; VEGF-A165 and VEGF-B167 immobilised on a CM5 chip by random amine coupling; NRP1-b1 in PBS injected for 60 s, two-fold dilutions from 64 to 0.25 μM; 25 °C; steady-state affinity assuming a 1:1 interaction. To be noted: both partners purified.

In experiment [7] the target is T5, VEGF‐B167 (human, UniProt P49765-2 22-188).
T5 construct: vascular endothelial growth factor B, isoform VEGF-B167, human
T5 sequence (looked up): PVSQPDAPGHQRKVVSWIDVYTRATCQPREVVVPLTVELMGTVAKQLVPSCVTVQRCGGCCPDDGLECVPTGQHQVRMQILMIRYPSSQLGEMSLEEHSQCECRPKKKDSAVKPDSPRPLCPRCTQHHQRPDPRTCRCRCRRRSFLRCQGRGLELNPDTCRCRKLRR
The description is as above. To be noted: both partners purified.

No end group written: not given here.

T4 sequence (P15692 other isoform, or with tags, fused parts or gaps): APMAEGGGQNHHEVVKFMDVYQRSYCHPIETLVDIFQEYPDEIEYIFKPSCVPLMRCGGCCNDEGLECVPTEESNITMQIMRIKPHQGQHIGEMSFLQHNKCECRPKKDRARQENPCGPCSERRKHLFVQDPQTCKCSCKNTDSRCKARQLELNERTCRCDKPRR

Take `NCc1ccc(-c2cc3c(c(S(=O)(=O)Nc4ccsc4C(=O)N[C@@H](CCCN=C(N)N)C(=O)O)c2)OCC3)cc1` [EG01377]: the “Effect on binding of NRP1‐b1 to immobilised VEGF‐B167” value in experiment [1] is “reduced the binding”. Also, in experiment [2], the “Effect on binding of NRP1‐b1 to immobilised VEGF‐A165” value was “reduced the binding”. In experiment [3], the “Binding to VEGFs” value was “No binding was observed”.
With “VEGF‐A165: Vascular endothelial growth factor A isoform 165, immobilised on the sensor chip”, the Kd in experiment [4] was found to be 9 µM.

B1: VEGF‐B167: Vascular endothelial growth factor B isoform 167, immobilised on the sensor chip (protein)
chain: PVSQPDAPGHQRKVVSWIDVYTRATCQPREVVVPLTVELMGTVAKQLVPSCVTVQRCGGCCPDDGLECVPTGQHQVRMQILMIRYPSSQLGEMSLEEHSQCECRPKKKDSAVKPDSPRPLCPRCTQHHQRPDPRTCRCRCRRRSFLRCQGRGLELNPDTCRCRKLRR
Consider B1, for which the Kd in experiment [4] was found to be 36 µM.

B2: MGC0124 (peptide)
chain: SCKNTDSRCKARQLELNERTCRCDKPRR
modifications: disulfide (positions not given here); not fully specified (N-terminus); also: cyclised by disulphide, Cys pairing not given here
The molecule B2 came in with a Kd in experiment [5] of 3.33 ± 0.1 µM.
Turning to B3, the Kd turned out to be 9 µM in experiment [6] and 36 µM in experiment [7].
